Where a chain is given by its changes, count along the chain named. Blank lines part the entries; values can stand above or below the molecule they belong to.
Assays:
[1] = molecular target: T1, hASIC1a (hASIC1a-mCherry, 4C12 cells) (Homo sapiens, UniProt P78348); experiment: FLIPR assay of acid-induced ASIC1a-mediated calcium influx in 4C12 cells; format: cell-based; details: at 30 µM
T1 construct: expressed in transfected cells
Description: Calcium Influx. The FLIPR Calcium 5 Assay kit was used to determine the acid-induced calcium influx in the hASIC1a-mCherry-expressing stable CHO-K1 cells (4C12). Cells were seeded in a clear bottom 96-well plate at a density of 10,000 per well 24 h before assay. Assay buffer and dye loading buffer (1.26 mM CaCl2, 0.5 mM MgCl2, 0.4 mM MgSO4, 5.33 mM KCl, 0.44 mM KH2PO4, 4.17 mM NaHCO3, 138 mM NaCl, 0.338 mM Na2HPO4, 20 mM HEPES, pH 7.4) were prepared according to the manufacturer's instruction. Probenecid was added to the dye loading buffer to a final concentration of 2.5 mM immediately before use. Fifty microliters of the assay buffer containing ASC06-IgG1 was incubated with the 4C12 cells for 30 min at 37° C., and an equal volume of the dye loading buffer was added. […] Cells were incubated with the dye loading buffer for 1 h before reading on an FDSS/μCELL plate reader (Hamamatsu). […] The progression curve of the calcium signal produced in each well was recorded continuously for 10 s before the addition of the activation buffer (preread) and 170 s after the addition on an FDSS/μCELL (excitation wavelength: 480 nm; emission wavelength: 540 nm) FLIPR reader. […]
The calcium influx of the ASIC1a was measured on a FLIPR instrument using the stable cell line 4C12 expressing hASIC1a-mCherry fusion. […]

[2] = molecular target: T2, hASIC1a Y318A mutation (hASIC1a-eYFP) (human, UniProt P78348 1-528); experiment: flow cytometry, CHO-K1 cells transiently transfected with hASIC1a Y318A-eYFP, ASC06-IgG1 and labelled second antibody
T2 construct: whole, on cells; Transiently expressed on CHO-K1 cells; not shown: eYFP fusion
T2 sequence (looked up): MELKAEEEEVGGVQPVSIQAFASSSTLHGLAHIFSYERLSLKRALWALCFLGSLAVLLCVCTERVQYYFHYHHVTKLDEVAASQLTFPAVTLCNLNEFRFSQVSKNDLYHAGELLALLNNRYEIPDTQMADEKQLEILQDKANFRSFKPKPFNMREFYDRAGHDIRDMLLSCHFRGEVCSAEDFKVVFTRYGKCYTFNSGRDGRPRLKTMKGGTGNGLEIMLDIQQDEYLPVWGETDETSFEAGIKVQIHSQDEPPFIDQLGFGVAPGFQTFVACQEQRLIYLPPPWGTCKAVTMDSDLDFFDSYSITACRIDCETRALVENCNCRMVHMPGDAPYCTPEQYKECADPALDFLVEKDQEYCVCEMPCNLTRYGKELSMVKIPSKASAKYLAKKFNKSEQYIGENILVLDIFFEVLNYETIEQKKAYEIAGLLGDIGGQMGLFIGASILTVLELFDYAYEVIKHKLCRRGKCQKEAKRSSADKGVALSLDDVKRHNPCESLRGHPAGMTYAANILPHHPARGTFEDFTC

hASIC2a/2b-eYFP (human) = hASIC2a/2b-eYFP (human) (UniProt Q16515); experiment: flow cytometry, CHO-K1 cells transiently transfected with hASIC2a/2b-eYFP, Alexa555-conjugated ASC06-IgG1; eYFP-positive cells without antibody signal: Q1-LR(27.09%)
[3] = molecular target: truncated hASIC1a (amino acids 13-464) (human) (UniProt P78348); experiment: SPR (Biacore T200), single cycle kinetics, Flag-tagged ΔhASIC1a captured on anti-Flag chip, antibody as analyte
hASIC3a-eYFP = molecular target: T3, hASIC3a-eYFP (human, UniProt Q9UHC3 1-531); experiment: flow cytometry, CHO-K1 cells transiently transfected with hASIC3a-eYFP, Alexa555-conjugated ASC06-IgG1
T3 construct: whole, on cells; Transiently expressed on CHO-K1 cells; not shown: eYFP fusion
T3 sequence (looked up): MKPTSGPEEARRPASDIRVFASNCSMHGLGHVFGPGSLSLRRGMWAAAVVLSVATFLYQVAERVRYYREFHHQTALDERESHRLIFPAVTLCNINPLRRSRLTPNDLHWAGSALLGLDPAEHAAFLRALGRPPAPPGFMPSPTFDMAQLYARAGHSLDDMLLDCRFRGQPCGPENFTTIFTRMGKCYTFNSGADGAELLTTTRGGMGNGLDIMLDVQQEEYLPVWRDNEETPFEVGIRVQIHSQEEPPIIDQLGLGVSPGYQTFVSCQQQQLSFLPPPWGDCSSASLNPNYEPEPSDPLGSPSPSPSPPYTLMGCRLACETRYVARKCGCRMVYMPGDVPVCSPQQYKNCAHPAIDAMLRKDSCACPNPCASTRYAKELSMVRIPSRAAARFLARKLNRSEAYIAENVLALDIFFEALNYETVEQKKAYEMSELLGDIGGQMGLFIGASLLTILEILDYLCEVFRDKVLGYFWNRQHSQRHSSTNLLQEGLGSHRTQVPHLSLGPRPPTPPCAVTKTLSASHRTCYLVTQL

hASIC1b-eYFP (human) = hASIC1b-eYFP (human) (UniProt P78348); experiment: flow cytometry, CHO-K1 cells transiently transfected with hASIC1b-eYFP, Alexa555-conjugated ASC06-IgG1; eYFP-positive cells without antibody signal: Q1-LR(49.22%)
hASIC1a-mCherry = molecular target: T4, hASIC1a-mCherry (human, UniProt P78348 1-528); experiment: cell-based or functional assay
T4 sequence (looked up): T2 sequence (looked up) with A318Y

hASIC1a-eYFP [4] = molecular target: T5, hASIC1a-eYFP (human, UniProt P78348 1-528); experiment: cell-based or functional assay
T5 sequence (looked up): T2 sequence (looked up) with A318Y

hASIC2a-eYFP = molecular target: T6, hASIC2a-eYFP (human, UniProt Q16515 1-512); experiment: flow cytometry, CHO-K1 cells transiently transfected with hASIC2a-eYFP, Alexa555-conjugated ASC06-IgG1
T6 construct: whole, on cells; Transiently expressed on CHO-K1 cells; not shown: eYFP fusion
T6 sequence (looked up): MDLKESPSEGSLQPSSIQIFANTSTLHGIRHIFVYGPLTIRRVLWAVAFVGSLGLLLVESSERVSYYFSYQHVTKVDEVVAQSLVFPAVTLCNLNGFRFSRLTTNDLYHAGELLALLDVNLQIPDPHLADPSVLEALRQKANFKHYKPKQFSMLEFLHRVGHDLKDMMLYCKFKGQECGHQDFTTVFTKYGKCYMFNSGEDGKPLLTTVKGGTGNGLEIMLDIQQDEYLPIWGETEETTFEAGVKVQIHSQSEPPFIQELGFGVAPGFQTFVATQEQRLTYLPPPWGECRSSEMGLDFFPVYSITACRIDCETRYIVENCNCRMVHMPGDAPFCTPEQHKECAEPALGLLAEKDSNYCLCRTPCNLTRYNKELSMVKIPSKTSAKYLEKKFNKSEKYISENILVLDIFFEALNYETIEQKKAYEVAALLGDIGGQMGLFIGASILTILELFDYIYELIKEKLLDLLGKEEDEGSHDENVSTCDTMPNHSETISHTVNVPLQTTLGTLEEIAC

hASIC1a-eYFP [5] = molecular target: T5, hASIC1a-eYFP; experiment: flow cytometry on 6H7 cells (stable hASIC1a-eYFP), Alexa555 secondary antibody
Description: In the flow cytometry-binding experiments, ASIC1a-eYFP-expressing stable cells (6H7) were collected and resuspended in ice cold FACS buffer (PBS, 0.05% BSA, 2 mM EDTA). […] After incubating at 4° C. for 15 min, the cells were washed twice and resuspended in the FACS buffer. Cells were sorted and analyzed on a flow cytometer (CytoFLEX S; Beckman Culter) to determine relative binding level by the antibodies to the stable cell lines overexpressing hASIC1a. Mean fluorescent intensities of Alexa555 in eYFP-positive cells were recorded and analyzed to calculate the apparent binding affinity of antibody.

T1 sequence (P78348 whole entry): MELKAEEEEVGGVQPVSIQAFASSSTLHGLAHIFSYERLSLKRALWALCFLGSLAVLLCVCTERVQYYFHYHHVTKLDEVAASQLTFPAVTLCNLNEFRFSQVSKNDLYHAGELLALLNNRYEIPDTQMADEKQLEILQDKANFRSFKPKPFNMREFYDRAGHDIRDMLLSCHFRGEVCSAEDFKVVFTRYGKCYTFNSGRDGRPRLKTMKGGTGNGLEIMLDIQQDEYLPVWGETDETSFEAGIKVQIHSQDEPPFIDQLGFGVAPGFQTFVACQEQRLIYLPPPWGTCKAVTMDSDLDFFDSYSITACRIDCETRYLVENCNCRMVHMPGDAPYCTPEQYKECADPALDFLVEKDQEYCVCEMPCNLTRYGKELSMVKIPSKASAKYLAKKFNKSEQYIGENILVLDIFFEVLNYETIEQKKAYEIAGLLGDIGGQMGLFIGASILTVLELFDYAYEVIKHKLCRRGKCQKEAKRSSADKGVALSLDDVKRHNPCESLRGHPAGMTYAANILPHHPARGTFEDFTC

inhibition of calcium influx [1]: 21%
Molecule: N=C(N)NC(=O)c1nc(Cl)c(N)nc1N [amiloride]

binding result [2]: no binding | percent of cells in quadrant Q1-UR (Alexa555 and eYFP double-positive) (hASIC2a/2b-eYFP (human)): 0.11% | Kd [3]: 7.9 nM | binding result (hASIC3a-eYFP): no binding | percent of cells in quadrant Q1-UR (Alexa555 and eYFP double-positive) (hASIC1b-eYFP (human)): 0.15% | IC50 of inhibition of acid-induced calcium influx, FLIPR assay on 4C12 cells (hASIC1a-mCherry): 2.9 nM | apparent IC50 of inhibition of acid (pH 6.0)-induced currents, whole-cell patch clamp on the hASIC1a stable cell line (hASIC1a-eYFP [4]): 85 nM | binding result (hASIC2a-eYFP): no binding | EC50 (hASIC1a-eYFP [5]): 2.06 nM
B1: ASC06-IgG1 (antibody, V domains shown)
VH: QVQLQQSGGGLVQPGGSLRLSCAASGFTFSSYAMSWVRQAPGKGLEWVSAISGSGGSTYYADSVKGRFTISRDNSKNTLYLQMNSLRAEDTAVYYCAKDSFYGYSKGDWGQGTLVTVSS
VL: QSALTQPASVSGSPGQSITISCTGTSSDVGAYNYVSWYQQQPGKAPKLMIYGVSNRPSGVSNRFSGSKSGNAASLTISGLQAEDEADYYCSSYTSSSTYVFGTGTKLTVLG
notes: also called full length (ASC06-IgG1); ASC06-lgG1

Source: patent publication US12692310B2, “ASIC1 channel antagonist antibody” (ShanghaiTech University, priority 2019, dated 2026)
